According to the supplement of paper PMC7125110:
± gives the standard error. This sample holds only a part of the variants without activity.

B1: glmS ribozyme (parent)
chain: AUAAAAGCGCCAGAACUACAGAAAUGUAGUUGACGAGGAGGAGGUUUAUCGAAUUUUCGGCGGAUGCCUCCAAA

Variants of: B1
Experiment: self-cleavage kobs at 2500 uM GlcN6P; higher = faster cleavage; RNA array
Settings: with glucosamine-6-phosphate
Summary of the method: (§1)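 Glucosamine-6-phosphate, from 40 μM to 10 mM in HEPES/KCl/Mg(OAc)2 buffer, was flowed over sequenced MiSeq chips carrying barcoded ribozyme variants transcribed in situ by E. coli RNA polymerase. A hybridised Cy3 probe tracked the variants at 37 °C as tiles were imaged over ~14 h. kobs, kcat and KM were obtained by fitting normalised per-tile medians to exponential decays and then applying weighted Michaelis–Menten fits across concentrations.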

Variant	self-cleavage kobs at 2500 uM GlcN6P [s⁻¹]
C8U A15U U31C A36G U46A A52U C58A C67U C70U	< 1e-05
C11U U31C G41U A64G C70A	0.0011 ± 0.0003
A12U C16G U30C	0.000813 ± 0.00031
C10U C11U A15C C34A	< 1e-05
C34A A48U C68A C71G	< 1e-05
G9U A15C C68U	< 1e-05
C10G A36G A52U	< 1e-05
U30A U46G A53U	0.000335 ± 9.7e-05
G9U A14G C61A A64G C70G	6.76e-05 ± 2.1e-05
C16U U57A	6.81e-05 ± 2.8e-05
U46A A53U C68U	0.000125 ± 6.3e-05
C10U C11A G41A U55C C58G	< 1e-05
U54A G63A C70U	< 1e-05
A15G G29U A39G C67U	0.000169 ± 5.3e-05
C8U U31A G43U U55A	< 1e-05
A42G A52G C67A	0.000326 ± 8.1e-05
G13U A48U G59C G62U	< 1e-05
A52U G59U A64U C70U	< 1e-05
G32C U47A A64G C68A	< 1e-05

Variant	self-cleavage kobs at 2500 uM GlcN6P [s⁻¹]
C16U A39U G44U C67A	0.0154 ± 0.0045
G35C A48G A53U	< 1e-05
G7C C10A C16G C61A	< 1e-05
G41C G44U U54A C68A C71A	< 1e-05
A14G G29A G44A	6.19e-05 ± 2.1e-05
A12C G13A A14G U31G	7.54e-05 ± 3e-05
C16G U31A C34A	< 1e-05
A14C A39C C71U	4.93e-05 ± 1.7e-05
G7A G51U U54G G63A	< 1e-05
G7A A15G G29A A36G A52G	< 1e-05
A6C C34G C50G	4.66e-05 ± 2.1e-05
G7A A39C U54G U57A C58U G66U	< 1e-05
C10U G13U A52U	< 1e-05
C10A U47A C70A	0.000334 ± 0.00015
A14U G41U U54A	0.000104 ± 3.2e-05
G32U U55C	0.000307 ± 7.3e-05
C8U G9U G13A G37A G41A	< 1e-05
G37C G38U G51A U54G	< 1e-05
A36G G40U U45G	< 1e-05

Variant	self-cleavage kobs at 2500 uM GlcN6P [s⁻¹]
A6G G32U U45G	< 1e-05
U46G C58U C68G	0.000337 ± 0.00012
G43U A48C C61G	< 1e-05
U46A U56G C67G	0.000172 ± 4.6e-05
C34A A42U U47A	< 1e-05
A12G G43U A48C U69G	< 1e-05
G26U C58U	6.46e-05 ± 1.7e-05
G13A U30A U45A U57G G60U U65C C68G	< 1e-05
C16G A36U G60A	< 1e-05
G44A U46A A48U A53C	< 1e-05
A33C G37C U55C	< 1e-05
G7A A12U U31G C70A	< 1e-05
G35U A48G C50G	0.000328 ± 0.00011
C8A U46G C61A U65C	< 1e-05
G7C G35C A48C C58U	< 1e-05
A15U C50U U54C G59C	< 1e-05
G38C A39U A53G U65C	< 1e-05
A6U A36G U46C A52G C67U	< 1e-05
C34A C68G	< 1e-05

Variants of: B1
Experiment: self-cleavage kobs at 10000 uM GlcN6P; higher = faster cleavage; RNA array
Settings: with glucosamine-6-phosphate
Summary of the method: as §1

Variant	self-cleavage kobs at 10000 uM GlcN6P [s⁻¹]
C34A A48U C68A C71G	< 1e-05
G9U A15C C68U	< 1e-05
C16U U57A	0.000194 ± 4.1e-05
G32U U55C	0.000584 ± 6.9e-05
G26U C58U	7.64e-05 ± 1.4e-05
G13U U54A U56C	0.000163 ± 3.3e-05
C16U G29U G32C	8.38e-05 ± 1.7e-05
G35C G51U G62U	< 1e-05
G7C G62C	< 1e-05
U46G G62A C71A	< 1e-05
G29U G37A C67U	5.27e-05 ± 1.5e-05
A52U U55C U65C C68G U69A	< 1e-05
G13C G32A U45G A52C C70U	< 1e-05
U31C G32A U47G C67A	6.62e-05 ± 1.4e-05
C8U U45A A48G C70G	< 1e-05
U30G U47C C68U	0.000171 ± 3.3e-05
U30G U55G C70G	4.53e-05 ± 1.9e-05
A14C A15U G32C C58U	3.19e-05 ± 1.1e-05
G41U U57C A64C	< 1e-05
G41U C67U	2.83e-05 ± 1.1e-05
G38U U56C	< 1e-05
A12G A14C C50G C71A	0.000133 ± 3.2e-05
G7U A15U C50G A53U U55G G62U	7.67e-05 ± 2.5e-05
C8U U31C A39U G66C	< 1e-05
G41A U45C A53U	0.000355 ± 8.4e-05
G41A U56C	3.52e-05 ± 1.7e-05
A39U G43A U47C G59A C67U	< 1e-05
C10G A42C U69G	< 1e-05
